Test results published in publication PMC10576031 (Proceedings of the National Academy of Sciences of the …, 2023).

How the values were obtained:
[1] = target: Human wild-type tau-K18 (residues 244 to 372), monomer (Homo sapiens, wild type, 2N4R (tau-F) …, UniProt P10636-8); assay: far-Western, overlay or dot blot
[2] = target: tau-K18 fibrils (Homo sapiens, wild type, 2N4R (tau-F) …, UniProt P10636-8); assay: far-Western, overlay or dot blot
tau-K18 fibrils, sequence (P10636 561-689): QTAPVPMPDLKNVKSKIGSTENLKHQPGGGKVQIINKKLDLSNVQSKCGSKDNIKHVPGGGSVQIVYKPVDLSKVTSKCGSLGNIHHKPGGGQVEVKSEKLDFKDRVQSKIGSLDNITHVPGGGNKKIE

Human wild-type tau-K18 (residues 244 to 372), monomer, sequence (P10636 561-689): as above

B1: VDW nanobody (first generation, scaffold 1) (VHH)
VHH: QVQLQESGGGLVQPGGSLRLSCAASGRTFSSYNMGWFRQAPGKGREFVASITSSGDKSDYTDSVKGRFTISRDNAKNTMYLQMNNLKPEDTATYYCARGSVWIWYEPVDWSEGTQVTVSS
- binding result [1]: binds
- binding result [2]: binds
